From US20190201542A1 (AbbVie / Abbott, published 2019)

T1: human DLL3 (human, UniProt Q9NYJ7 27-492, limits assumed)
T1 construct: also called hDLL3; DLL3 protein
T1 sequence: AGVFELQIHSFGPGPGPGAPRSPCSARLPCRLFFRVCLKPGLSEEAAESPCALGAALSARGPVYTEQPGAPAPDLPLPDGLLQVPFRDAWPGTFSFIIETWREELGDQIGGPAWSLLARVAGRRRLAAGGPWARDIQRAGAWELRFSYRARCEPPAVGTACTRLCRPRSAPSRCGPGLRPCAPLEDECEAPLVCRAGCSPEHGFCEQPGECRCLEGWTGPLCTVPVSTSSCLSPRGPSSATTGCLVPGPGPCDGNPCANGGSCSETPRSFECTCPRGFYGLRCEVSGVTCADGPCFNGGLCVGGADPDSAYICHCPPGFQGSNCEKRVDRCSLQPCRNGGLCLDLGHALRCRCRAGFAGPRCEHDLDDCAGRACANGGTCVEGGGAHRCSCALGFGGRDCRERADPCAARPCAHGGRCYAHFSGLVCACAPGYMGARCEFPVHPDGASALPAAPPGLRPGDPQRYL


What follows are binders tested against T1, human DLL3 (assay: screen on immobilized hDLL3 or h293-hDLL3 cells).
Method in brief: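 After 10 days in culture, supernatants of single-cell hybridomas from human DLL3-immunized mice were tested on cells and by solid-phase ELISA. A flow-cytometry signal above the control level counted as binding. The ELISA used DLL3-His coated at 0.5 μg/ml, HRP anti-mouse IgG and TMB, with reading at OD 450.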

Row | binding result | Binder
1 | binds | SC16.63 (antibody, V domains shown, murine mAb) VH: QVQLQQSGTELLRPGASVKISCKATGYTFSSYWMEWVKQRPGHGLEWIGEILPGSGTTQYNEKFKGKATFTADTSSNTAYMHLSSLTSEDSAVYYCARGTNSLWGQGTLVTVSA VL: QIVLTQSPAIMSASPGEKVTMTCSASSSVSYMYWYQQKSGTSPKRWIYDTSKLASGVPARFSGSGSGTSYSLTISSMEAEDAATYYCQQWSSNPYTFGGGTKLEIK
2 | binds | SC16.49 (antibody, V domains shown, murine mAb) VH: QVQLQQSGPELVKPGTLVKISCKASGYTFTSYDINWVKQRPGQGLEWIGWIYPGDGNTKYSEKFKGKATLTADKSSSTAYMQLTSLTSENSAVYFCARDYDYPFAYWGQGTLVTVSA VL: DIKMTQSPSSMYASLGERVTITCKASQDINSYLSWFQQKPGKSPKTLIYRANRLVDGVPSRFSGSGSGQDYSLTITSLEYEDMGIYYCLQYDEFPLTFGAGTKLELK
3 | binds | SC16.55 (antibody, V domains shown, murine mAb) VH: EVQLVESGGGLVQPKGSLKLSCAVSAFTFTTYAMNWVRQAPGKGLEWVARIRNKSNNYATYYADSVKDRFTISRDDSQSMLYLQMNNLKIEDTAMYYCVFYYDYVYWGQGTLVTVSA VL: DIKMTQSPSSMYASLGERVTITCKASQDINSYLNWFQQKPGKSPKTLIYRANRLVDGVPSRFSGSGSGQDYSLTISSLEYEDMGIYYCLQYDEFPYTFGGGTKLEIK
4 | binds | SC16.62 (antibody, V domains shown, murine mAb) VH: EVMLVESGGDLVKPGGSLKLSCAASGFTFSSYAMSWVRQTPEKRLEWVAYISGGGDHIYYPDSVRGRFTISRDNAKDTLYLQMSSLRSEDTALYDCARVRDWYFDVWGAGTTVTVSS VL: DIKMTQSPSSMYASLGERVTITCKASQDINSFLSWFQRKPGKSPKTLIYRANRLVDGVPSRFTGSGSGQEFSLTISSLEYEDLGIYYCLQYDEFPYTFGGGTKLEIK
5 | binds | SC16.78 (antibody, V domains shown, murine mAb) VH: EVKLVESGGGLVKPGGSLKLSCAASGFTFGRYVMSWVRQTPEKKLEWVASITSGGTTYYPDSVKGRFTISRDNARNILYLQMSSLRSEDTAMYYCARVYYHYDDIFAYWGQGTLVTVSA VL: DIKMTQSPSSMYASLGERVTITCKASQDINSYLSWFQQKPGRSPKTLIYRANRLVDGVPSRFSGSGSGQDYSLTISSLDYEDMGIYYCLQYDEFPFTFGSGTKLEIK
6 | binds | SC16.7 (antibody, V domains shown, murine mAb) VH: EVQLQQSGPELVKPGASVKISCKASGYSFTGYKMHWVKQSHVKSLEWIGRINPYNGATSYNQNFKDKATLTVDKSSSTAYMDLHSLTSEDSAVYFCARGDYRYDWFAYWGQGTLVTVSA VL: NIMMTQSPSSLAVSAGEKVTMSCKSSQSVLYSSNQKNYLAWYQQKPGQSPKLLIYWASTRESGVPDRFTGSGSGTDFTLTISTVQVEDLAVYYCHQYLSSWTFGGGTKLEIK
7 | binds | SC16.84 (antibody, V domains shown, murine mAb) VH: EVQLQQSGPELVKPGASMKISCKASGYSFTGYTMNWVKQSHGKNLEWIGLINPYNGGTTYNQKFKGKATLTVDKSSSTAYMELLSLTSEDSAVYYCALGYYGNYRRYFDVWGAGTTVTVSS VL: DIQMTQSPSSLSASLGGKVTITCKASQDIKKYIAWYQHKPGKGPRLLIHYTSTLEPGIPSRFSGSGSGRDYSFSISNLEPEDIATYYCLQYDILWTFGGGTKLEIK
8 | binds | SC16.81 (antibody, V domains shown, murine mAb) VH: QVQLKESGPVLVAPSQSLSITCTVSGFSLTSYGVHWVRQPPGKGLEWLGVIWAGGSTNYNSALMSRLSISKDNSKSQVFLKMNSLQTDDTAMYYCAKQGNFYAMDYWGQGTSVTVSS VL: QIVLTQSPAIMSASLGERVTLTCTASSSVSSSYLHWYQQKPGSSPKLWIYSTSNLASGVPTRFSGSGSGTSYSLRISSMEAEDAATYYCHQYNRSPLTFGAGTKLELK
9 | binds | SC16.57 (antibody, V domains shown, murine mAb) VH: EVKLVESGGDLVKPGGSLKLSCAASGFAFSSYDMSWVRQTPEKRLEWVATISSGGSYTYYPDSVKGRFTISRDNVRDTLYLQMSSLRSEDTALYYCARQAIGTYFDYWGQGTTLTVSS VL: DIVMTQSHKFMSISVGDRVSITCKASQDVSIFVAWYQQKPGQSPKLLIYSASYRYTGVPDRFTGSGSGTDFIFTISSVQAEDLAVYYCQQHYGTPFTFGSGTKLKIR
10 | binds | SC16.88 (antibody, V domains shown, murine mAb) VH: QVQLQQSGAELARPGASVKLSCKASGYTCTSYWMQWVKQRPGQGLEWIGAIYPGDGDTRYTQKFKGKATLTADKSSSTAYMQLSSLASEDSAVYYCARGRRTEAWFAYWGQGTLVTVSA VL: not shown
11 | binds | SC16.80 (antibody, V domains shown, murine mAb) VH: EVQLQQSGPELVKPGGSKKISCKASGYSFTGYSMNWVKQSHGKNLEWIGLINPYSGGTIYNQKFKGKATLTVDKSSSTAYMELLSLTSEDSAVYYCARRSDYPLVYWGQGTLVTVSA VL: ETTVTQSPASLSMAIGEKVTIRCITSTDIDDDMIWYQQKPGEPPKLLISEGNTLRPGVPSRFSSSGYGTDFVFTIENMLSEDVADYYCLKRDDLPYTFGGGTQVEIK
12 | binds | SC16.8 (antibody, V domains shown, murine mAb) VH: QAQLQQSGAELVRPGTSVKVSCKASGYAFTNYLIEWVKQRPGQGLEWIGVINPGTGGTNYNENFKGKATLTADKSSSTAYMQLSSLTSDDSAVYFCARSPYDYHEGAMDYWGQGTSVTVSS VL: EIQMTQSPSSMSASLGDRITITCQATQDIVKNLNWYQQKPGKPPSFLIYYAIELAEGVPSRFSGSGSGSDYSLTISNLESEDFADYYCLQFYEFPFTFGAGTKLELK
13 | binds | SC16.67 (antibody, V domains shown, murine mAb) VH: EVQLVETGGGLVQPKGSLKLSCAVSAFTFTTYAMNWVRQAPGKGLEWVARIRNKSNNYATYYADSVKDRFTISRDDSQSMLYLQMNNLKIEDTAMYYCVFYYDYVYWGQGTLVTVSA VL: QAVVTQESALTTSPGETVTLTCRSSTGAVTTSNYANWIQEKPDHLFTGLIGGTNNRAPGVPARFSGSLIGDKAALTITGAQTEDEAIYFCGLWYSNHLVFGGGTKLTVL
14 | binds | SC16.73 (antibody, V domains shown, murine mAb) VH: QVQLQQSGAELMKPGASVKISCKANGYTFSSYWIEWLRQRPGHGLEWIGEILPGSDNSNYNEKFKGKATFTADTSSNTAYMQLSSLTSEESAVYYCTRGLRRDGSYYYVMEHWGQGTSVTVSS VL: DIQMTQSPSSLSASLGERVSLTCRASQDIGYSLNWLQQEPDGTIKRLIYATSSLDSGVPKRFSGSRSGSDYSLTISSLESEDFVDYYCLQYASSPWTFGGGTKLEIK
15 | binds | SC16.72 (antibody, V domains shown, murine mAb) VH: EVQLQQSGPELVKPGASVKMSCKASGYTFTSYVMHWVKQKPGQGLEWIGYINPYNDGTKYNEKFKGKATLTSDKSSSTAYMELSSLTSEDSAVYYCARLRSRAMDYWGQGTSVTVSS VL: ENVLTQSPAIMSASLGEKVTMSCRASSSVNYMSWYQQKSDASPKLWIYYTSNLAPGVPARFSGSGSGNSYSLTISSMEGEDAATYYCQQFTSSPYTFGGGTKLEIK
16 | binds | SC16.61 (antibody, V domains shown, murine mAb) VH: EVLLQRSGPDLVKPGASVTIPCKASGYTFTDYNMDWVKQSHGKSLEWIGNINTYNGGTIYNQKFKGKATLTVDKPSSTAYMELRSLTSEDTAVYYCARRLRYGGHYFDYWGQGTALTVSS VL: DIVMTQSTSSLAMSVGQKVTMSCKSSQSLLNSSNQKNYLAWYQQEPGQSPKLLVSFASTRESGVPDRFTGSGSGTDFTLTISGVQAEDLAVYYCQQHYSIPLTFGAGTKLELK
17 | binds | SC16.65 (antibody, V domains shown, murine mAb) VH: QVTLKESGPGILQPSQTLSLTCSFSGFSLSTSGMGVGWIRQPSGKGLEWLALIWWDDVKRYNPALKSRLTISKDASSSQVFLKIASVDTADTATYYCARIASYDYDVVYAMDYWGQGTSVSVSS VL: QIVLTQSPALMSASPGEKVTMTCSVTSSVSYMYWYQQKPRSSPKPWIYLTSNLASGVPARFSGSGSGTSYSLTISSVEAEDAATYYCQQWRNNPFTFGSGTKVEIK
18 | binds | SC16.58 (antibody, V domains shown, murine mAb) VH: DVQLVESGGGLVQPGGSRKLSCAASGFTFSSFGMHWVRQAPEKGLEWVAYISSGSSNIYYADTVKGRFTISRDNPKNTLFLQMTSLRSEDTAMYYCARGYYGNYDAMDYWGQGTSVTVSS VL: DIQMTQSPASLSSSVGETVTITCRASENIYSYLAWYQQKQGKSPQLLVYNAKTLAEGVPSRFSGSGSGTQFSLKINSLQPEDFGTYYCQHHYDSPLTFGAGTKLELR
19 | binds | SC16.52 (antibody, V domains shown, murine mAb) VH: QVQLKESGPGLVAPSQSLSITCAVSGFSLTSFAIHWFRKPPGKGLEWLGVIWTGGTTNYNSALMSRLSISKDNSKSQVFLKMNSLQTDDTAMYYCARDDYDNNYAMDYWGQGTSVTVSS VL: DIQMIQSPSSMFASLGDRVSLSCRASQGIRGTLDWYQQKPNGTIKLLIYSTSNLNSGVPSRFSGSGSGSDYSLTISSLESEDFADYYCLQRNAYPLTFGAGTKLELK
20 | binds | SC16.79 (antibody, V domains shown, murine mAb) VH: EVQLQQSGPELVKPGASVKISCKTSGYTFTEYTMHWVKQSHGKSLEWIGGINPNNGGTSYNQKFKGKATLTVDKSSSTAYMELRSLTSEDSAVYYCARGPAWFAYWGQGTLVTVSA VL: DIVMSQSPSSLAVSAGEKVTMSCKSSQSLLNSRTRKNYLAWYQQKPGQSPKLLIYWASTRESGVPDRFTGSGSGTDFTLTISSVQAEDLAVYYCKQSYNLYTFGGGTKLKIK
